Experimental findings from publication PMC10187114 are described below.

In assay [1] the target is VPS35L (human) (UniProt Q7Z3J2). As to the kind of experiment: SEC; Retriever co-expressed in insect cells, affinity purification then size-exclusion chromatography (Superdex200, 25 mM HEPES pH 8.0, 300 mM NaCl, 2 mM β-mercaptoethanol, 4°C). (In gel filtration, larger molecules generally elute earlier.)
Assay [2] concerns the target VPS29 (recombinant) (human) (UniProt Q9UBQ0). As to the kind of experiment: ITC; VPS35L peptides at 600 μM titrated into 20 μM VPS29, 100 mM Tris pH 7.4, 300 mM NaCl, 25°C, single site model.

“3xStrepII-VPS26C (from UniProt O14972 1-297) (natural protein)”: the stoichiometry N in assay [1] turned out to be 1.

As to “VPS35L (28-37) peptide (from UniProt Q7Z3J2 28-37)”, in assay [2], the Kd worked out at 6.8 µM.

The term stoichiometry N denotes the number of molecules, sites or subunits per partner or assembly. The term Kd denotes the equilibrium constant for the complex coming apart.
